One substance from publication PMC4054823 can be followed below.

The experiment addresses SERCA (UniProt P04191). Kind of experiment: time-resolved FRET in reconstituted lipid vesicles. The following applies: reference: unphosphorylated labeled PLB; sites S16.

In the case of “phospholamban (PLB) (from UniProt P61015) PKA-phosphorylated, HPLC-purified labeled PLB (pPLB)”, the “other: mole fraction of PLB bound to SERCA (xDA)” value is reported as “weaker; reference 0.99 ± 0.01”.
